Test results: US6887705B1, “Tyrosine phosphorylated cleavage furrow-associated proteins (PSTPIPs)” (Genentech, Inc., priority 1997, dated 2005)

Columns and labels:
[1] = target: T1, interaction between PTP HSCF and PSTPIP (Mus musculus, UniProt P97814); details: previous studies (Spencer et al. 1997); cited from earlier work
T1 construct: made in house; host or cells: GST fusion: E. coli DH5-alpha; PSTPIP: in vitro transcription/translation in rabbit reticulocyte lysate (Promega TnT)
T1 sequence (P97814 1-415): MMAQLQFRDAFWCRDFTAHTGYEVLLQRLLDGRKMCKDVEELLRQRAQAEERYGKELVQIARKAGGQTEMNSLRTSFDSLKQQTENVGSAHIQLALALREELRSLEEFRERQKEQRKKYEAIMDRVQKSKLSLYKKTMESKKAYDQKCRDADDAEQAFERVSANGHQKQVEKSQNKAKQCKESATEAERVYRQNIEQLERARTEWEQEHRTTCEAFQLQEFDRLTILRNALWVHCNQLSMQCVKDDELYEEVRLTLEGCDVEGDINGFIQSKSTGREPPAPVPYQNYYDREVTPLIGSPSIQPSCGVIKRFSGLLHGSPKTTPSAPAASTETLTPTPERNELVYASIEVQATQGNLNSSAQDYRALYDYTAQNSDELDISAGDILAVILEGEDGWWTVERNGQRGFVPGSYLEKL

[2] = target: T2, W232A mutant of PST PIP, C-terminal FLAG (murine, UniProt P97814 1-415); test: GST-PTP HSCF pulldown of in vitro translated PST PIP mutant
T2 construct: In vitro translated or expressed in COS cells; also called W232A PST PIP; PST PIP with an alanine replacement mutation at tryptophan232
T2 sequence: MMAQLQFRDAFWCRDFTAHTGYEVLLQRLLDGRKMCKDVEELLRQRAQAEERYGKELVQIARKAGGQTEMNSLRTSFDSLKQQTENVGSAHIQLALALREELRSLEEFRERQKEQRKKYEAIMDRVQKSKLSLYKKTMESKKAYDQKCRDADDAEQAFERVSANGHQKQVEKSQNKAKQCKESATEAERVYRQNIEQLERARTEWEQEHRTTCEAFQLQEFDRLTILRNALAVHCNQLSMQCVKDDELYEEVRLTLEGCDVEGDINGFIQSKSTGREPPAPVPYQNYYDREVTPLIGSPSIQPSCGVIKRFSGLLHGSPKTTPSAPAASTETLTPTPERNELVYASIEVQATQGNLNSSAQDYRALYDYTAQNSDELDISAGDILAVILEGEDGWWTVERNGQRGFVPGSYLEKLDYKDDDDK
Method: In vitro binding analyses between various PTP HSCF and PST PIP constructs were performed as previously described (Spencer et al, (1997), supra). Briefly, plasmids were transcribed and translated in vitro using the TnT Rabbit Reticulocyte Lysate System (Promega). Samples were diluted in 50 mM HEPES, pH 7.2, 1% triton X-100, 10% glycerol, 100 mM NaCl, and 2 µg/ml each of leupeptin, pepstatin, aprotinin and PMSF (lysis buffer). Samples were than reacted with GST fusion proteins at various concentrations, and the bound proteins were centrifuged using glutathione-sepharose beads and analyzed on SDS polyacrylamide gels. C-terminally-derived peptide inhibition studies were performed by incubating the GST fusion protein binding reactions in the presence of 10 µg/ml of the indicated peptides. Peptides were produced by FMOC-protected amino acids as previously described (Spencer et al, (1997), supra). In vivo interactions between various forms of PTP HSCF and PST PIP were also performed as previously described (Spencer et al, (1997), supra). Briefly, COS cells were transfected with various constructs, and after 48 hours, lysates were prepared and immunoprecipitated with antibodies to either the FLAG epitope contained at the C-terminus of PST PIP or an HA epitope contained at the N-terminus of PTP HSCF. […]

[3] = target: T3, PST PIP missing 50 amino acids from the N-terminus (delta 50), C-terminal FLAG (murine, UniProt P97814 51-415); test: GST-PTP HSCF pulldown of in vitro translated PST PIP deletion mutant
T3 construct: The 5' primer (N-coil.2, Glu51) carries ATGATG before the first PSTPIP codon
T3 sequence: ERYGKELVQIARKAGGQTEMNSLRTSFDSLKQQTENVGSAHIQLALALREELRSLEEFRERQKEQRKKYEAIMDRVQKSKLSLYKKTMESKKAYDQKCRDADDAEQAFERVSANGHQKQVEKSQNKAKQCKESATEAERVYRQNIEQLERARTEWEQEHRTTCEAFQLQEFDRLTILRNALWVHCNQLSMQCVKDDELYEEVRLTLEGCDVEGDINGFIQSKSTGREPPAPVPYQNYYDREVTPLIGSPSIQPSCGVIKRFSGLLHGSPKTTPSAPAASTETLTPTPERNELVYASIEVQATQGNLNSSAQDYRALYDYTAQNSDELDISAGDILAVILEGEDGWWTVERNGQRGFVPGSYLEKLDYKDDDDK
Excerpt: (§1) FIG. 9. N Terminal Truncations Result in a Loss of PST PIP Binding to PTP HSCF. Full length PST PIP (Spencer et al., *J. Cell. Biol.*, 138(4):845–860 (1997)) and forms missing 25 (delta 25), 50 (delta 50) and 75 (delta 75) amino acids from the N-terminus were transcribed and translated in vitro. The upper panel illustrates immunoprecipitation of the proteins with an antibody directed against a PST PIP C-terminal FLAG epitope. The lower panel illustrates the same proteins precipitated with a GST fusion protein containing the C-terminal 149 amino acids of PTP HSCF (Cheng et al., *Oncogene* 13:2275–2279 (1996)) including the C-terminal proline rich binding site.
(§2) In vitro binding analyses between various PTP HSCF and PST PIP constructs were performed as previously described (Spencer et al, (1997), supra). Briefly, plasmids were transcribed and translated in vitro using the TnT Rabbit Reticulocyte Lysate System (Promega). Samples were diluted in 50 mM HEPES, pH 7.2, 1% triton X-100, 10% glycerol, 100 mM NaCl, and 2 µg/ml each of leupeptin, pepstatin, aprotinin and PMSF (lysis buffer). Samples were than reacted with GST fusion proteins at various concentrations, and the bound proteins were centrifuged using glutathione-sepharose beads and analyzed on SDS polyacrylamide gels. […]

[4] = target: T4, PST PIP missing 75 amino acids from the N-terminus (delta 75), C-terminal FLAG (murine, UniProt P97814 76-415); test: as above
T4 construct: The 5' primer (N-coil.3, Ser76) carries ATGATG before the first PSTPIP codon
T4 sequence: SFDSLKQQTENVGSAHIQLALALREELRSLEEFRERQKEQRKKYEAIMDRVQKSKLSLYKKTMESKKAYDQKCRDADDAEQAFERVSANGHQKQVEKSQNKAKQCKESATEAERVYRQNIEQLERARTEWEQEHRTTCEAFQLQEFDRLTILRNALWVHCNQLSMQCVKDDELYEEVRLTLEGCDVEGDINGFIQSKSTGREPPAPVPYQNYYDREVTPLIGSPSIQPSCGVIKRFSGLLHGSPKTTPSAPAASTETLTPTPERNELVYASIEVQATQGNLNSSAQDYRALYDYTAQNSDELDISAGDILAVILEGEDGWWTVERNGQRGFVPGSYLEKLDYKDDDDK
Excerpt: as §1, §2

[5] = target: T5, double mutant of PTP HSCF with both R444 and W450 mutated to alanine, HA tagged (UniProt Q61152 1-453); test: anti-HA immunoprecipitation from co-transfected COS cells, blot with anti-PST PIP
T5 construct: range 1-453; also called R+W; R444+W450
T5 sequence (looked up): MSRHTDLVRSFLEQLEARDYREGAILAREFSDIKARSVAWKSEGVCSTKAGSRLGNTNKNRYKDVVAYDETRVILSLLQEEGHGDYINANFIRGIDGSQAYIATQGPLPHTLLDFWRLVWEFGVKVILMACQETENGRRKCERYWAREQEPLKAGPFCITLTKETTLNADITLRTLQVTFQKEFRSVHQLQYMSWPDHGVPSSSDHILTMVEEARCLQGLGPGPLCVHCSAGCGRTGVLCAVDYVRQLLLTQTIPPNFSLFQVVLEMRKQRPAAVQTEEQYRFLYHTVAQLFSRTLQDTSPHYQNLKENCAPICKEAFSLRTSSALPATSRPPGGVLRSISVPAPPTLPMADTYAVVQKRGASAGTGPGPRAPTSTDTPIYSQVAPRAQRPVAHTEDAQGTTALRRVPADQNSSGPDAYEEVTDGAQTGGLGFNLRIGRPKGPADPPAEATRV
Method: Multiple bands precipitated with the GST PST PIP fusion protein are apparently C-terminal proteolyzed products of the PTP. Also shown are GST PST PIP precipitations (10 μg/ml) performed on a double mutant of PTP HSCF (R+W) with both residues $R444$ and $W450$ mutated to alanine (bottom panel FIG. 14 A/2). B. COS cells were co-transfected with a 10:1 ratio of plasmids encoding hemagglutinin (HA) tagged PTP HSCF with the illustrated alanine substitutions or a mutant of PTP HSCF deleted for the C-terminal 24 amino acids (PTP $HSCFD24$) and wild type PST PIP with a C-terminal FLAG epitope tag, respectively. Transfected cell lysates were immunoprecipitated with anti-HA monoclonal antibodies and the precipitates were blotted with anti-PST PIP polyclonal antibody to detect the relative amounts of PST PIP complexed with either wild type or different mutant forms of PTP HSCF. […] Equal expression of PSTPIP was determined by immunoprecipitating lysates with anti-FLAG monoclonal antibody and blotting with anti-PST PIP polyclonal antibody.
In vitro binding analyses between various PTP HSCF and PST PIP constructs were performed as previously described (Spencer et al, (1997), supra). […] Samples were than reacted with GST fusion proteins at various concentrations, and the bound proteins were centrifuged using glutathione-sepharose beads and analyzed on SDS polyacrylamide gels. […]

## GFGNRCGKPKGPRDPPSEWT [PXXP-PEST]
[1]
  blocking of the PTP HSCF-PST PIP interaction by C-terminal peptides of related PTPs: effectively block the interaction

## GFGNRFSKPKGPRNPPSAW [PXXP-PEP]
[1]
  blocking of the PTP HSCF-PST PIP interaction by C-terminal peptides of related PTPs: effectively block the interaction

B1: GST-PST-rich+CTH PTP HSCF (GST fusion of PTP HSCF amino acids 304-453) (other, UniProt Q61152 304-453, looked up)
chain: QNLKENCAPICKEAFSLRTSSALPATSRPPGGVLRSISVPAPPTLPMADTYAVVQKRGASAGTGPGPRAPTSTDTPIYSQVAPRAQRPVAHTEDAQGTTALRRVPADQNSSGPDAYEEVTDGAQTGGLGFNLRIGRPKGPRDPPAEWTRV
notes: range 304-453; the methods give amino acids 304-453; also called GST-PTP HSCF; GST PTP HSCF; not shown: glutathione S-transferase encoded by pGEX-4T-2 (Pharmacia)
[2]
  binding result: no binding
[3]
  binding result: no binding
[4]
  binding result: no binding

B2: full-length PSTPIP tagged with the FLAG epitope at the C-terminus (other)
chain: MMAQLQFRDAFWCRDFTAHTGYEVLLQRLLDGRKMCKDVEELLRQRAQAEERYGKELVQIARKAGGQTEMNSLRTSFDSLKQQTENVGSAHIQLALALREELRSLEEFRERQKEQRKKYEAIMDRVQKSKLSLYKKTMESKKAYDQKCRDADDAEQAFERVSANGHQKQVEKSQNKAKQCKESATEAERVYRQNIEQLERARTEWEQEHRTTCEAFQLQEFDRLTILRNALWVHCNQLSMQCVKDDELYEEVRLTLEGCDVEGDINGFIQSKSTGREPPAPVPYQNYYDREVTPLIGSPSIQPSCGVIKRFSGLLHGSPKTTPSAPAASTETLTPTPERNELVYASIEVQATQGNLNSSAQDYRALYDYTAQNSDELDISAGDILAVILEGEDGWWTVERNGQRGFVPGSYLEKLDYKDDDDK
notes: In vitro transcribed/translated in rabbit reticulocyte lysate, or expressed in COS cells
[5]
  binding result: no binding
